Patent publication US11261437B2, “Procoagulant compounds” (Bioverativ Therapeutics Inc., priority 2012, dated 2022)
*1 amine or outer side, *2 acyl side, *3 side chain or, on linkers, in order; H or OH if unused. Bridges are numbered along the chain shown (N, C = ends). Where no end group is shown, it is not given here. [ ]: non-standard residue; d: D form. The star is where a group is joined. PABC = O=C(OCc1ccc(N[*:1])cc1)[*:2]; Pip = O=C(O)[C@@H]1CCCCN1; Acm = CC(=O)NC*

Tests used:
Assay type in all cases: biochemical
thrombin [1] = molecular target: T1, thrombin (Homo sapiens, UniProt P00734); assay: Thrombin cleavage of Compound 7 (HPLC); conditions: 1.4 nm thrombin, peptide 10 μM, PBS, 37° C., after 30 minutes
Description: FIG. 5 depicts the cleavage of Compound 7 by thrombin. Upon cleavage with 1.4 nM thrombin in PBS, the clean synthetic procoagulant peptide is released, as well as the portion of the molecule comprising the thrombin substrate, the GGGG linker, and the N-terminal cysteine. To conduct the reaction, 21 μL of peptide (0.24 mM) in water was added to 476.5 μL PBS. The mixture was incubated at 37° C. for 30 min, followed by 2.5 μL of thrombin (278 nM, 10 μg/mL), giving the following approximate initial concentrations: thrombin=1.4 nM, peptide=10 μM. The mixture was incubated at 37° C. Aliquots (60 μL) at various time points were quenched with 1 μL of hirudin (10 μM) and injected into the HPLC (C-18 column, CH3CN/H2O, 0 to 70% over 12 minutes, 60° C. 0.5 mL/min, ? =280 nm). Compound 7 was cleaved rapidly by 1.4 nm thrombin. Approximately 90% of Compound 7 was cleaved after 30 minutes.

plasma (TGA assay) = assay: Cleavage of Compound 7 during the TGA assay (HPLC of plasma); conditions: plasma at the end of TGA assay
Description: Plasma at the end of TGA assay for Compound 7 was transferred into cold CH3CN (1 mL) and centrifuged at 13 k rpm for 10 min. Supernatant (1.1 mL) was transferred to a new vial and dried by speedvac. The resulting solid was reconstituted with 30 μL of H2O and injected into the HPLC for analysis.

thrombin [2] = molecular target: T1, thrombin; assay: Thrombin cleavage of Compounds 1, 4, 5 and 6 by 1.4 nM thrombin (HPLC); conditions: thrombin 1.4 nM, peptide 50 μM, PBS, 37° C.
Description: FIG. 9 depicts the cleavage of Compounds 1, 4, 5 and 6 by 1.4 nM thrombin. Compounds 1, 4 and 5 incorporate PABC and different thrombin-cleavable substrates.
50 μL of peptide (1 mM) in water was added to 900 μL PBS. The mixture was incubated at 37° C. for 30 min, followed by 50 μL of thrombin (27.8 nM, 1 μg/mL), giving the following approximate initial concentrations: thrombin=1.4 nM, peptide=50 μM. The mixture was incubated at 37° C. Aliquots (95 μL) at various time points were quenched with 5 μL of hirudin (2 μM) and injected into the HPLC (C-18 column, CH3CN/H2O, 0 to 70% over 12 minutes, 60° C. 0.5 mL/min, ? =280 nm). The decreases of peptide peak areas were used to calculate yield.

Substance | Compound cleaved by thrombin (thrombin [1]) | Cleavage during the course of a TGA assay (plasma (TGA assay)) | Thrombin-mediated release of peptide IVGGQE (thrombin [2])
Cys(Acm)-Gly-Gly-Gly-Gly-Dphe-Pip-Arg-PABC-rRAPGKLTCLASYCWLFWTGIA-NH2 (disulfide) (C(Acm)GGGG[dF][Pip]R[PABC][dR]RAPGKLTCLASYCWLFWTGIA-NH2; disulfide 18-23 (inferred)) [Compound 7] | Approximately 90% | cleaved completely | –
Ala-Leu-Val-Pro-Arg-Ile-Val-Gly-Gly-Gln-Glu-NH2 (ALVPRIVGGQE-NH2) [Compound 6] | – | – | not observed
